# According to PMC6999076, “Engineered disulfide bonds improve thermostability and activity of L‐isoleucine hydroxylase for efficient 4‐HIL production in Bacillus subtilis 168” (Engineering in Life Sciences, 2019):
# B1: L-isoleucine hydroxylase (IDO) (Bacillus cereus ATCC 14579) (protein)
# chain: MTFVLSKMNGFSIEEKVHEFESKGFLEISNEIFLQEEENHRLLTQAQLDYYNLEDDAYGECRARSYSRYIKYVDSPDYILDNSNDYFQSKEYNYDDGGKVRQFNSINDSFLCNPLIQNIVRFDTEFAFKTNIIDTSKDLIIGLHQVRYKATKERPSFSSPIWLHKDDEPVVFLHLMNLSNTAIGGDNLIANSPREINQFISLKEPLETLVFGQKVFHAVTPLGTECSTEAFRDILLVTFSYKETK
# notes: full-length, 6xHis tag (downstream primer, C-terminal) kept; free cysteines C61, C112, C226; GenBank AE016877.1 is a whole-genome record (B. cereus ATCC 14579), not a gene record
# Key:
# [1] = substrate: CC[C@H](C)[C@H](N)C(=O)O; assay: DNFB precolumn derivatization HPLC of 4-HIL; Michaelis-Menten fit; assay type: biochemical, Bacillus cereus; settings: 20 mM alpha-KG, assay: 1 mM FeSO4, 5 mM ascorbic acid, PBS pH 7.0, 30°C
# Source text: (§1) DNFB precolumn derivatization HPLC of 4-HIL; Michaelis-Menten fit on L-isoleucine hydroxylase (IDO)
# [2] = substrate: O=C(O)CCC(=O)C(=O)O; assay: as above; assay type: biochemical, Bacillus cereus; settings: 20 mM L-Ile, assay: 1 mM FeSO4, 5 mM ascorbic acid, PBS pH 7.0, 30°C
# Source text: as §1
protein,measurement,setting,value
B1,Km,[1],260 µM
same,kcat,[1],0.84 s⁻¹
same,kcat/Km,[1],3180 M⁻¹ s⁻¹
same,Km,[2],3340 µM
same,kcat,[2],0.32 s⁻¹
same,kcat/Km,[2],90 M⁻¹ s⁻¹
